# Non-standard residues stand in square brackets, D forms with d. No end group written: not given here. *: point of attachment. Desaminotyrosyl = O=C(CCc1ccc(O)cc1)*; NMeY = CN[C@@H](Cc1ccc(O)cc1)C(=O)O; Agmatine = N=C(N)NCCCCN*; Nle = CCCC[C@H](N)C(=O)O; Orn = NCCC[C@H](N)C(=O)O; Abu = CC[C@H](N)C(=O)O; Aoc = NCCCCCCCC(=O)O
# B1: P-20351 [Ac-N-Me-Tyr^1, D-Ala^2, Gln^8, Orn^12, Abu^15, Orn^21, Nle^27, Asp^28, Agm^29]hGHRH(1-29)NH2 (peptide)
# peptide: Ac-[NMeY][dA]DAIFTQSYR[Orn]VL[Abu]QLSAR[Orn]LLQDI[Nle]D[Agmatine]
# SMILES: CCCC[C@H](NC(=O)[C@@H](NC(=O)[C@H](CC(=O)O)NC(=O)[C@H](CCC(N)=O)NC(=O)[C@H](CC(C)C)NC(=O)[C@H](CC(C)C)NC(=O)[C@H](CCCN)NC(=O)[C@H](CCCNC(=N)N)NC(=O)[C@H](C)NC(=O)[C@H](CO)NC(=O)[C@H](CC(C)C)NC(=O)[C@H](CCC(N)=O)NC(=O)[C@H](CC)NC(=O)[C@H](CC(C)C)NC(=O)[C@@H](NC(=O)[C@H](CCCN)NC(=O)[C@H](CCCNC(=N)N)NC(=O)[C@H](Cc1ccc(O)cc1)NC(=O)[C@H](CO)NC(=O)[C@H](CCC(N)=O)NC(=O)[C@@H](NC(=O)[C@H](Cc1ccccc1)NC(=O)[C@@H](NC(=O)[C@H](C)NC(=O)[C@H](CC(=O)O)NC(=O)[C@@H](C)NC(=O)[C@H](Cc1ccc(O)cc1)N(C)C(C)=O)[C@@H](C)CC)[C@@H](C)O)C(C)C)[C@@H](C)CC)C(=O)N[C@@H](CC(=O)O)C(=O)NCCCCNC(=N)N
# notes: also called Peptide 20351
# B2: P-21300 [Dat^1, D-Ala^2, Orn^12, Abu^15, Orn^21, Nle^27, Asp^28, Amc^30]hGHRH(1-30)NH2 (peptide)
# peptide: [Desaminotyrosyl][dA]DAIFTNSYR[Orn]VL[Abu]QLSAR[Orn]LLQDI[Nle]DR[Aoc]-NH2
# SMILES: CCCC[C@H](NC(=O)[C@@H](NC(=O)[C@H](CC(=O)O)NC(=O)[C@H](CCC(N)=O)NC(=O)[C@H](CC(C)C)NC(=O)[C@H](CC(C)C)NC(=O)[C@H](CCCN)NC(=O)[C@H](CCCNC(=N)N)NC(=O)[C@H](C)NC(=O)[C@H](CO)NC(=O)[C@H](CC(C)C)NC(=O)[C@H](CCC(N)=O)NC(=O)[C@H](CC)NC(=O)[C@H](CC(C)C)NC(=O)[C@@H](NC(=O)[C@H](CCCN)NC(=O)[C@H](CCCNC(=N)N)NC(=O)[C@H](Cc1ccc(O)cc1)NC(=O)[C@H](CO)NC(=O)[C@H](CC(N)=O)NC(=O)[C@@H](NC(=O)[C@H](Cc1ccccc1)NC(=O)[C@@H](NC(=O)[C@H](C)NC(=O)[C@H](CC(=O)O)NC(=O)[C@@H](C)NC(=O)CCc1ccc(O)cc1)[C@@H](C)CC)[C@@H](C)O)C(C)C)[C@@H](C)CC)C(=O)N[C@@H](CC(=O)O)C(=O)N[C@@H](CCCNC(=N)N)C(=O)NCCCCCCCC(N)=O
# notes: also called Peptide 21300
# B3: P-21303 [N-Me-Tyr^1, D-Ala^2, Orn^12, Abu^15, Orn^21, Nle^27, Asp^28, Amc^30]hGHRH(1-30)NH2 (peptide)
# peptide: [NMeY][dA]DAIFTNSYR[Orn]VL[Abu]QLSAR[Orn]LLQDI[Nle]DR[Aoc]-NH2
# modifications: N-terminus assumed
# SMILES: CCCC[C@H](NC(=O)[C@@H](NC(=O)[C@H](CC(=O)O)NC(=O)[C@H](CCC(N)=O)NC(=O)[C@H](CC(C)C)NC(=O)[C@H](CC(C)C)NC(=O)[C@H](CCCN)NC(=O)[C@H](CCCNC(=N)N)NC(=O)[C@H](C)NC(=O)[C@H](CO)NC(=O)[C@H](CC(C)C)NC(=O)[C@H](CCC(N)=O)NC(=O)[C@H](CC)NC(=O)[C@H](CC(C)C)NC(=O)[C@@H](NC(=O)[C@H](CCCN)NC(=O)[C@H](CCCNC(=N)N)NC(=O)[C@H](Cc1ccc(O)cc1)NC(=O)[C@H](CO)NC(=O)[C@H](CC(N)=O)NC(=O)[C@@H](NC(=O)[C@H](Cc1ccccc1)NC(=O)[C@@H](NC(=O)[C@H](C)NC(=O)[C@H](CC(=O)O)NC(=O)[C@@H](C)NC(=O)[C@H](Cc1ccc(O)cc1)NC)[C@@H](C)CC)[C@@H](C)O)C(C)C)[C@@H](C)CC)C(=O)N[C@@H](CC(=O)O)C(=O)N[C@@H](CCCNC(=N)N)C(=O)NCCCCCCCC(N)=O
# notes: also called Peptide 21303
# Biological target: T1, human GHRH receptor (human pituitary membrane homogenates) (human, UniProt Q02643 23-423)
# T1 construct: whole, on cells; Native receptor in human pituitary membrane homogenates, not on intact cells; also called hGHRH receptor
# T1 sequence (looked up): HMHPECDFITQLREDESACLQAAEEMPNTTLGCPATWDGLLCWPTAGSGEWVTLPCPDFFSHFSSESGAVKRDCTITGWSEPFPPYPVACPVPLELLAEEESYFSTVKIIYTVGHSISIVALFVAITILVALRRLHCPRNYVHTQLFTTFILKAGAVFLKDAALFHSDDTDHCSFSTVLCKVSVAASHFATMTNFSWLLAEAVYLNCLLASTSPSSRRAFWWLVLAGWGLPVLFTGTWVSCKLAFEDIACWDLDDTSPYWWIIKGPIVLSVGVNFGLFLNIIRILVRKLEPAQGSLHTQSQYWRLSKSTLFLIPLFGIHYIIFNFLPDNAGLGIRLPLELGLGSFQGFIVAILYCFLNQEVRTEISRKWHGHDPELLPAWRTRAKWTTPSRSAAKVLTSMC
# Assay: radioligand competition vs 125I-JV-1-42 (0.2 nM), human pituitary membranes
# Excerpt: Normal human pituitaries were purchased from the National Hormone and Peptide Program (A. F. Parlow, Los Angeles, County Harbor-UCLA Medical Center, Torrance, Calif.).
row,Binder,Relative affinity (Binding potency) vs JI-38 [fold]
1,"[NMeY][dA]DAIFTQSYR[Orn]VL[Abu]QLSAR[Orn]LLQDI[Nle]D[Agmatine] (also called Peptide 20361) [P-20361 [N-Me-Tyr^1, D-Ala^2, Gln^8, Orn^12, Abu^15, Orn^21, Nle^27, Asp^28, Agm^29]hGHRH(1-29)NH2]",5.3
2,B1,1.26
3,B2,1.2
4,B3,2.32
